Experiments:
[1] = target: T1, human FcγRIIIaV extracellular domain, His-tagged (human, UniProt P08637 17-208); assay: SPR (BIACORE), antibody captured on chip, FcγR as analyte, 25 C; KD of SG1 divided by KD of the variant
T1 construct: also called human FcγRIIIa (V158 allotype); FcgRIIIaV; not shown: His-tag added to the C-terminus
Description: The kinetic analysis of interactions between these antibodies and FcγR was carried out using BIACORE® T200 or BIACORE® 4000 (GE Healthcare). HBS-EP+ (GE Healthcare) was used as the running buffer, and the measurement temperature was set to 25° C. […] After the measurement, the antibody captured on the chip was washed off by allowing reaction with 10 mM glycine-HCl, pH1.5 and 25 mM NaOH so that the chip was regenerated and used repeatedly. The sensorgrams obtained as measurement results were analyzed by the 1:1 Langmuir binding model using the BIACORE® Evaluation Software to calculate the binding rate constant ka (L/mol/s) and dissociation rate constant kd (1/s), and the dissociation constant KD (mol/L) was calculated from these values. […] Regarding such interactions, KD values were calculated using the following 1:1 binding model described in BIACORE® T100 Software Handbook BR1006-48 Edition AE.

[2] = target: T2, cynomolgus monkey FcγRIIa1 extracellular domain with C-terminal His-tag (cynomolgus monkey); assay: SPR (Biacore), KD of SG1 divided by KD of variant
T2 construct: also called cyno FcgRIIa1; cynoFcγRIIa1
T2 chain: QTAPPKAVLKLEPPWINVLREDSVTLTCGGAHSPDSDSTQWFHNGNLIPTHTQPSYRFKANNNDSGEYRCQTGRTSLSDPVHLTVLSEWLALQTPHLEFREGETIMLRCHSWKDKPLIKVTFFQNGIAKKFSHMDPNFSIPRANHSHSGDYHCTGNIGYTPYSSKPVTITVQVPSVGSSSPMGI

[3] = target: T3, human FcγRIIIaV extracellular domain with C-terminal His-tag (human, UniProt P08637 17-208); assay: SPR (Biacore), KD of SG1 divided by KD of variant
T3 construct: also called human FcgRIIIaV
T3 sequence (P08637 17-208 F176V): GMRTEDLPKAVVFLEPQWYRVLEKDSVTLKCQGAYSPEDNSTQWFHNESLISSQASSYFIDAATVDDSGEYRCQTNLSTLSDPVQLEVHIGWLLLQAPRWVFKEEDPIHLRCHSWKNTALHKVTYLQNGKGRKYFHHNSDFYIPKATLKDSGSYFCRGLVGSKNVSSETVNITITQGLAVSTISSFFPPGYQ

[4] = target: T4, cynomolgus monkey FcγRIIa3 extracellular domain with C-terminal His-tag (cynomolgus monkey); assay: SPR (Biacore), KD of SG1 divided by KD of variant
T4 construct: also called cyno FcgRIIa3; cynoFcγRIIa3
T4 chain: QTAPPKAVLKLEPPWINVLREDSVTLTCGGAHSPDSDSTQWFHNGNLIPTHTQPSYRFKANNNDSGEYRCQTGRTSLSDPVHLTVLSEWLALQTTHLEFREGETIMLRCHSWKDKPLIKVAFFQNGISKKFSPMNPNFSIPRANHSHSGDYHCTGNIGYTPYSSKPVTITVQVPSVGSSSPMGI

[5] = target: T5, human FcγRIIb extracellular domain with C-terminal His-tag (human, UniProt P31994 43-217); assay: SPR (Biacore), KD of SG1 divided by KD of variant
T5 construct: also called human FcgRIIb
T5 sequence: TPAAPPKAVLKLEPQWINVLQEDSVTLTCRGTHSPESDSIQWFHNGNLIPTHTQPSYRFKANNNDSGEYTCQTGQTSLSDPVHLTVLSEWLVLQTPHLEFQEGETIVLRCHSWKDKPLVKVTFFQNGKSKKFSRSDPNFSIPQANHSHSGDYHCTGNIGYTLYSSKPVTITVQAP

[6] = target: T6, human FcγRIIaR extracellular domain with C-terminal His-tag (human, UniProt P12318 34-217); assay: SPR (Biacore), KD of SG1 divided by KD of variant
T6 construct: also called human FcgRIIaR; FcγRIIa (type R)
T6 chain: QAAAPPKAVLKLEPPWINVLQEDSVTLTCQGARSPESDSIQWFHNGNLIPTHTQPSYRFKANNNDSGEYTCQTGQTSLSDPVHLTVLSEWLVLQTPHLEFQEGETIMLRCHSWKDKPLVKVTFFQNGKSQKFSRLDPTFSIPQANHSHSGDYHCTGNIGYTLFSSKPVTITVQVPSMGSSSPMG

[7] = target: T7, human FcγRIIaH extracellular domain with C-terminal His-tag (human, UniProt P12318 34-217); assay: SPR (Biacore), antibody captured, FcgR as analyte
T7 construct: also called human FcgRIIaH; FcγRIIa (type H)
T7 sequence: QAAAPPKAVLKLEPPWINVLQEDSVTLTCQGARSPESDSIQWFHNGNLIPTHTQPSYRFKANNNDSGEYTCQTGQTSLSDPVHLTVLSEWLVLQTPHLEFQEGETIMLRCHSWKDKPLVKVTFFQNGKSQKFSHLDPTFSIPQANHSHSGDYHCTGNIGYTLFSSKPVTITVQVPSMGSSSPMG

[8] = target: T6, human FcγRIIaR extracellular domain …; assay: SPR (Biacore), antibody captured, FcgR as analyte
[9] = target: T8, cynomolgus monkey FcγRIIIaS extracellular domain with C-terminal His-tag (cynomolgus monkey, UniProt Q8SPW2 21-206 at identity 1.00)); assay: SPR (Biacore), KD of SG1 divided by KD of variant
T8 construct: also called cyno FcgRIIIaS; cynoFcγRIIIaS
T8 chain: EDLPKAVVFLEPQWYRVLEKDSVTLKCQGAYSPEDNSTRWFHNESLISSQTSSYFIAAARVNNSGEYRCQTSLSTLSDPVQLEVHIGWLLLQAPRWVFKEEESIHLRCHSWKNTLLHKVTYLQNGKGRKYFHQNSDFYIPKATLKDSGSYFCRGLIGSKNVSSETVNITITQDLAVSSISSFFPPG

[10] = target: T2, cynomolgus monkey FcγRIIa1 …; assay: SPR (Biacore), antibody captured, FcgR as analyte

T1 sequence (P08637 17-208 F176V): as the sequence (P08637 17-208 F176V) above

B1: M103205H795-MY318/M103202L889-SK1 (antibody, human IgG1, kappa, name in EU numbering)
heavy: QVTLKESGPVLVKPTETLTLTCTVSGIDLSHDDISWVRQAPGKGLEWVGIISYAGSTYYASWAKGRLTISKDTSKNQVVLTMTNMDPVDTATYYCARGVPAYSHGGDLWGQGTLVTVSSASTKGPSVFPLAPSSKSTSGGTAALGCLVKDYFPEPVTVSWNSGALTSGVHTFPAVLQSSGLYSLSSVVTVPSSSLGTQTYICNVNHKPSNTKVDKKVEPKSCDKTHTCPPCPAPELLLGPSVFLFPPKPKDTLMISRTPEVTCVVVDVSEEDPEVKFNWYVDGVEVHNAKTKPREEQYNSTYRVVSVLTVLHQDWLNGKEYKCKVSNTALPKPIEKTISKAKGQPREPQVYTLPPSREEMTKNQVSLTCLVKGFYPSDIAVEWESNGQPENNYKTTPMVLDSDGSFFLYSKLTVDKSRWQQGNVFSCSVMHEALHNHYTQKSLSLSP
light: DIVMTQSPATLSLSPGERATLSCTSSQSVYHANWLSWFQQKPGQPPKLLIYWASTLAYGVPSRFSGSGSGTDFTLTISSLQPEDAATYYCAGGYGGGRYAFGQGTKVEIKRTVAAPSVFIFPPSDEQLKSGTASVVCLLNNFYPREAKVQWKVDNALQSGNSQESVTEQDSKDSTYSLSSTLTLSKADYEKHKVYACEVTHQGLSSPVTKSFNRGEC
notes: expressed with M103202L889-SK1 as light chain
KD fold for humanFcgRs (SG1 = 1) [1]: 0.09 fold

B2: M103205H795-MY388 (second row so labelled: G236T/S239I/H268D/A330K) / M103202L889-SK1 (antibody, human IgG1, kappa, name in EU numbering)
heavy: QVTLKESGPVLVKPTETLTLTCTVSGIDLSHDDISWVRQAPGKGLEWVGIISYAGSTYYASWAKGRLTISKDTSKNQVVLTMTNMDPVDTATYYCARGVPAYSHGGDLWGQGTLVTVSSASTKGPSVFPLAPSSKSTSGGTAALGCLVKDYFPEPVTVSWNSGALTSGVHTFPAVLQSSGLYSLSSVVTVPSSSLGTQTYICNVNHKPSNTKVDKKVEPKSCDKTHTCPPCPAPELLTGPIVFLFPPKPKDTLMISRTPEVTCVVVDVSDEDPEVKFNWYVDGVEVHNAKTKPREEQYNSTYRVVSVLTVLHQDWLNGKEYKCKVSNKALPKPIEKTISKAKGQPREPQVYTLPPSREEMTKNQVSLTCLVKGFYPSDIAVEWESNGQPENNYKTTPPVLDSDGSFFLYSKLTVDKSRWQQGNVFSCSVMHEALHNHYTQKSLSLSP
light: DIVMTQSPATLSLSPGERATLSCTSSQSVYHANWLSWFQQKPGQPPKLLIYWASTLAYGVPSRFSGSGSGTDFTLTISSLQPEDAATYYCAGGYGGGRYAFGQGTKVEIKRTVAAPSVFIFPPSDEQLKSGTASVVCLLNNFYPREAKVQWKVDNALQSGNSQESVTEQDSKDSTYSLSSTLTLSKADYEKHKVYACEVTHQGLSSPVTKSFNRGEC
notes: The label MY388 is printed for two different variants; also called MY388 (second of two rows with this label)
KD fold (SG1 = 1) [2]: 1.9 fold

B3: M103205H795-MY520 / M103202L889-SK1 (antibody, human IgG1, kappa, name in EU numbering)
heavy: QVTLKESGPVLVKPTETLTLTCTVSGIDLSHDDISWVRQAPGKGLEWVGIISYAGSTYYASWAKGRLTISKDTSKNQVVLTMTNMDPVDTATYYCARGVPAYSHGGDLWGQGTLVTVSSASTKGPSVFPLAPSSKSTSGGTAALGCLVKDYFPEPVTVSWNSGALTSGVHTFPAVLQSSGLYSLSSVVTVPSSSLGTQTYICNVNHKPSNTKVDKKVEPKSCDKTHTCPPCPADELLTGPVVFLFPPKPKDTLMISRTPEVTCVVVDVSDEDPEVKFNWYVDGVEVHNAKTKPREELYNSTYRVVSVLTVLHQDWLNGKEYKCKVSNKALPKPIEKTISKAKGQPREPQVYTLPPSREEMTKNQVSLTCLVKGFYPSDIAVEWESNGQPENNYKTTPPVLDSDGSFFLYSKLTVDKSRWQQGNVFSCSVMHEALHNHYTQKSLSLSP
light: DIVMTQSPATLSLSPGERATLSCTSSQSVYHANWLSWFQQKPGQPPKLLIYWASTLAYGVPSRFSGSGSGTDFTLTISSLQPEDAATYYCAGGYGGGRYAFGQGTKVEIKRTVAAPSVFIFPPSDEQLKSGTASVVCLLNNFYPREAKVQWKVDNALQSGNSQESVTEQDSKDSTYSLSSTLTLSKADYEKHKVYACEVTHQGLSSPVTKSFNRGEC
KD fold (SG1 = 1) [3]: 0.23 fold
KD fold (SG1 = 1) [4]: 8.1 fold
KD fold (SG1 = 1) [5]: 3.3 fold
KD fold (SG1 = 1) [6]: 3.2 fold

B4: M103205H795-MY528 / M103202L889-SK1 (antibody, human IgG1, kappa, name in EU numbering)
heavy: QVTLKESGPVLVKPTETLTLTCTVSGIDLSHDDISWVRQAPGKGLEWVGIISYAGSTYYASWAKGRLTISKDTSKNQVVLTMTNMDPVDTATYYCARGVPAYSHGGDLWGQGTLVTVSSASTKGPSVFPLAPSSKSTSGGTAALGCLVKDYFPEPVTVSWNSGALTSGVHTFPAVLQSSGLYSLSSVVTVPSSSLGTQTYICNVNHKPSNTKVDKKVEPKSCDKTHTCPPCPAPEWLTGPSVFLFPPKPKDTLMISRTPEVTCVVVDVSDEDPEVKFNWYVDGVEVHNAKTKPREEQYNSTYRVVSVLTVLHQDWLNGKEYKCKVSNKALPKPIEKTISKAKGQPREPQVYTLPPSREEMTKNQVSLTCLVKGFYPSDIAVEWESNGQPENNYKTTPPVLDSDGSFFLYSKLTVDKSRWQQGNVFSCSVMHEALHNHYTQKSLSLSP
light: DIVMTQSPATLSLSPGERATLSCTSSQSVYHANWLSWFQQKPGQPPKLLIYWASTLAYGVPSRFSGSGSGTDFTLTISSLQPEDAATYYCAGGYGGGRYAFGQGTKVEIKRTVAAPSVFIFPPSDEQLKSGTASVVCLLNNFYPREAKVQWKVDNALQSGNSQESVTEQDSKDSTYSLSSTLTLSKADYEKHKVYACEVTHQGLSSPVTKSFNRGEC
Kd [7]: 350 nM
Kd [8]: 560 nM
KD fold (SG1 = 1) [9]: 0.18 fold

B5: M103205H795-MY530 / M103202L889-SK1 (antibody, human IgG1, kappa, name in EU numbering)
heavy: QVTLKESGPVLVKPTETLTLTCTVSGIDLSHDDISWVRQAPGKGLEWVGIISYAGSTYYASWAKGRLTISKDTSKNQVVLTMTNMDPVDTATYYCARGVPAYSHGGDLWGQGTLVTVSSASTKGPSVFPLAPSSKSTSGGTAALGCLVKDYFPEPVTVSWNSGALTSGVHTFPAVLQSSGLYSLSSVVTVPSSSLGTQTYICNVNHKPSNTKVDKKVEPKSCDKTHTCPPCPAPELLTGPSVFLFPPKPKDTLMISRTPEVTCVVVDVSDEDPEVKFNWYVDGVEVHNAKTKPREEQYNSTYRVVSVLTVLHQDWLNGKEYKCKVSNTALPKPIEKTISKAKGQPREPQVYTLPPSREEMTKNQVSLTCLVKGFYPSDIAVEWESNGQPENNYKTTPPVLDSDGSFFLYSKLTVDKSRWQQGNVFSCSVMHEALHNHYTQKSLSLSP
light: DIVMTQSPATLSLSPGERATLSCTSSQSVYHANWLSWFQQKPGQPPKLLIYWASTLAYGVPSRFSGSGSGTDFTLTISSLQPEDAATYYCAGGYGGGRYAFGQGTKVEIKRTVAAPSVFIFPPSDEQLKSGTASVVCLLNNFYPREAKVQWKVDNALQSGNSQESVTEQDSKDSTYSLSSTLTLSKADYEKHKVYACEVTHQGLSSPVTKSFNRGEC
Kd [10]: 1300 nM
KD fold (SG1 = 1) [5]: 2.9 fold
KD fold (SG1 = 1) [2]: 2.5 fold

Reference: patent US20250076311A1 (Chugai, published 2025)
